Data taken from patent US20230348564A1, “ANTI-CANCER PROTEINS” (UNICHEM LABORATORIES LTD, priority 2020, published 2023).

Assays:
[1] = system: EA.hy926 (Human endothelial cells); assay: endothelial cell proliferation by MTT assay; assay type: cell-based; conditions: for % inhibition of FBS stimulated cell growth / Mean (MTT absorbance): 72 h
Protocol: The cell line used for the study was EA.hy926 (Human endothelial cells) which was procured from National Centre for Cell Science, Pune (India). The cell line was maintained in DMEM+10% FBS (heat inactivated) at 37° C. with 5% CO2, and 95% humidity. […] Untreated cells with complete medium (10% FBS) served as complete medium control, cells with sera free medium served as SFM control and the cells treated with Paclitaxel served as positive control.
The percentage cytotoxicity corresponding to each treatment was calculated.

[2] = system: MCF-10A (Human mammary epithelial cells); assay: Calcein AM cytotoxicity assay; conditions: 48h
Protocol: (§1) All the cancer cell lines were procured from National Centre for Cell Science, Pune (India). The cell lines were maintained under conditions as described in Table 21 below. The cell lines were sub-cultured by trypsinization followed by splitting the cell suspension into fresh flasks and supplementing with fresh culture medium.
(§2) All the cell lines were grown in specified media at 37° C. with 95% Humidity and […].
(§3) The cells were trypsinized, counted by Trypan blue method in Neuebauer's Chamber and plated in wells of flat bottom 96-well plate (dark walled plate, flat bottom) at the density corresponding to 10×10^3 cells/well/180 μl medium.
(§4) Following overnight incubation, the cells were treated with test item (20 μL) at concentrations ranging from 2.5-80 μg/mL, so that the total volume in each well is 200 μL.
(§5) The cells were incubated with the test items or positive control for a time period of 48h. Following incubation, the cell cytotoxicity was estimated using Calcein AM Cell Viability Assay Kit from R&D systems (Cat No. 4892-010-K).
(§6) Fluorescence was measured at 485 nm (excitation/528 run (emission) spectra using Synergy HT micro plate reader.
(§7) Percentage cytotoxicity wrt untreated cells was calculated using formula:
(§8) Cytotoxicity=[(RFUuntreated−RFUsample)/RFUuntreated]*100
(§9) RFU: relative fluorescence units
(§10) IC50 value was calculated using Graph-Pad Prism version 4.01 software.

[3] = system: THP-1 (Human acute monocytic leukemia); assay: Calcein AM cytotoxicity assay; conditions: 48h
Protocol: as §1, §2, §3, §4, §5, §6, §7, §8, §9, §10

[4] = system: A549 (Human lung carcinoma); assay: Calcein AM cytotoxicity assay; conditions: 48h
Protocol: as §1, §2, §3, §4, §5, §6, §7, §8, §9, §10

[5] = system: MCF-7 (Human breast adenocarcinoma); assay: Calcein AM cytotoxicity assay; conditions: 48h
Protocol: as §1, §2, §3, §4, §5, §6, §7, §8, §9, §10

[6] = system: ZR-75-1 (Human ductal carcinoma); assay: Calcein AM cytotoxicity assay; conditions: 48h
Protocol: as §1, §2, §3, §4, §5, §6, §7, §8, §9, §10

[7] = system: SW620 (Human Colorectal adenocarcinoma); assay: Calcein AM cytotoxicity assay; conditions: 48h
Protocol: as §1, §2, §3, §4, §5, §6, §7, §8, §9, §10

[8] = system: AGS (Human stomach adenocarcinoma); assay: Calcein AM cytotoxicity assay; conditions: 48h
Protocol: as §1, §2, §3, §4, §5, §6, §7, §8, §9, §10

[9] = system: PBMCs (Peripheral blood mononuclear cells); assay: Calcein AM cytotoxicity assay; conditions: 48h
Protocol: as §1, §2, §3, §4, §5, §6, §7, §8, §9, §10

[10] = system: HT-29 (Human Colorectal adenocarcinoma); assay: Calcein AM cytotoxicity assay; conditions: 48h
Protocol: as §1, §2, §3, §4, §5, §6, §7, §8, §9, §10

[11] = system: SK-Mel-28 (Human melanoma); assay: Calcein AM cytotoxicity assay; conditions: 48h
Protocol: as §1, §2, §3, §4, §5, §6, §7, §8, §9, §10

[12] = system: Human Primary mammary epithelial (HMEC) cells; assay: Calcein AM cytotoxicity assay; conditions: 48h
Protocol: as §1, §2, §3, §4, §5, §6, §7, §8, §9, §10

[13] = system: SiHa (Human cervix squamous cell carcinoma); assay: Calcein AM cytotoxicity assay; conditions: 48h
Protocol: as §1, §2, §3, §4, §5, §6, §7, §8, §9, §10

Astrocytoma (U87MG) = assay: cytotoxicity in Brain Tumor Cell lines by MTT assay; conditions: 72 h
[14] = system: EA.hy926 (Human endothelial cells); assay: Cell migration by scratch assay in endothelial cells; assay type: cell-based
Protocol: EA.hy296 cells were counted using hemocytometer and plated in 6-well plates at the density of 0.5×10^6 cells/well. The cells were incubated overnight under growth conditions as described above so as to allow cell recovery and exponential growth. Following overnight incubation, a small linear scratch (representative wound) was created in the confluent monolayer (middle of the well) by gently scraping with sterile 200 μl micropipette tip. Photomicrographs of the scratch were taken at 0 h (Initial time point). Cells were rinsed with serum free DMEM and grouped for treatment in two different serum conditions:
• Baseline control: Cells+DMEM • Positive/Validation control: Baseline control+Positive Control. Test: Baseline control+Test Item
• Baseline control: Cells+DMEM+1% FBS • Positive/Validation control: Baseline control+Positive Control. • Test: Baseline control+Test item
Photomicrographs of the scratch were taken at 24 h-72 h time points. The photomicrographs obtained in the above step were analyzed for quantitative assessment of area of wound closure using ImageJ tool software. Percentage migration with respect to untreated cells at different time points was calculated.

Meningioma (IOMM-Lee) = assay: cytotoxicity in Brain Tumor Cell lines by MTT assay; conditions: 72 h

B1: SEQ ID NO. 2: recombinant lectin; variant of the S. rolfsii lectin amino acid sequence (reported as Rec-2 in WO 2010/095143) (protein)
chain: TYKITVRVYQTNPDAFFHPVEKTVWKYANGGTWTITDDQHVLTMGGSGTSGTLRFHADNGESFTATFGVHNYKRWCDIVTNLAADETGMVINQQYYSQKNREEARERQLSNYQVKNAKGRNFQIVYTEAEGNDLHANLIIG
modifications: In vitro synthesis
% Cytotoxicity (MIAPaCa-2): 47.5%
% Cytotoxicity (MDA-MB-453): 46.6%
% inhibition of FBS stimulated cell growth ([1]; 2.5 μg/mL): −9.83%
Mean (MTT absorbance) ([1]; 2.5 μg/mL): 1.761
% inhibition of FBS stimulated cell growth ([1]; 5 μg/mL): −12.16%
Mean (MTT absorbance) ([1]; 5 μg/mL): 1.799
% inhibition of FBS stimulated cell growth ([1]; 10 μg/mL): −16.59%
Mean (MTT absorbance) ([1]; 10 μg/mL): 1.870
inhibition of endothelial cell proliferation as compared to control ([1]; 20 μg/mL to 100 μg/mL): 15.51% to 58.53%
% inhibition of FBS stimulated cell growth ([1]; 20 μg/mL): 15.51%
Mean (MTT absorbance) ([1]; 20 μg/mL): 1.355
% inhibition of FBS stimulated cell growth ([1]; 40 μg/mL): 29.22%
Mean (MTT absorbance) ([1]; 40 μg/mL): 1.135
% inhibition of FBS stimulated cell growth ([1]; 80 μg/mL): 56.50%
Mean (MTT absorbance) ([1]; 80 μg/mL): 0.698
% inhibition of FBS stimulated cell growth ([1]; 100 μg/mL): 58.53%
Mean (MTT absorbance) ([1]; 100 μg/mL): 0.665
IC50 [2]: >80 µg/mL
IC50 [3]: >80 µg/mL
IC50 [4]: >80 µg/mL
IC50 [5]: >80 µg/mL
IC50 [6]: >80 µg/mL
IC50 [7]: >80 µg/mL
IC50 [8]: 42.6 µg/mL
IC50 [9]: >80 µg/mL
IC50 [10]: 42.0 µg/mL
IC50 [11]: >80 µg/mL
IC50 [12]: >80 µg/mL
IC50 [13]: >80 µg/mL
IC50 Value (Astrocytoma (U87MG)): 98.88 µg/mL
inhibition of endothelial cells migration as compared to control (DMEM) ([14]; 20 μg/mL to 100 μg/mL, after 72 hrs): 71.5% to 82.4%
Inhibition of migration with respect to untreated ([14]; 20 μg/mL, 24 h, 1% FBS): 0.8%
Inhibition of migration with respect to untreated ([14]; 20 μg/mL, 24 h, SFM): 74%
Inhibition of migration with respect to untreated ([14]; 20 μg/mL, 48 h, 1% FBS): 5.4%
Inhibition of migration with respect to untreated ([14]; 20 μg/mL, 48 h, SFM): 81.1%
Inhibition of migration with respect to untreated ([14]; 20 μg/mL, 72 h, SFM): 82.4%
Inhibition of migration with respect to untreated ([14]; 40 μg/mL, 24 h, 1% FBS): 28.5%
Inhibition of migration with respect to untreated ([14]; 40 μg/mL, 24 h, SFM): 80.5%
Inhibition of migration with respect to untreated ([14]; 40 μg/mL, 48 h, 1% FBS): 35.3%
Inhibition of migration with respect to untreated ([14]; 40 μg/mL, 48 h, SFM): 82.3%
Inhibition of migration with respect to untreated ([14]; 40 μg/mL, 72 h, SFM): 82.2%
Inhibition of migration with respect to untreated ([14]; 50 μg/mL, 24 h, 1% FBS): 30.0%
Inhibition of migration with respect to untreated ([14]; 50 μg/mL, 24 h, SFM): 79.9%
Inhibition of migration with respect to untreated ([14]; 50 μg/mL, 48 h, 1% FBS): 42.9%
Inhibition of migration with respect to untreated ([14]; 50 μg/mL, 48 h, SFM): 81%
Inhibition of migration with respect to untreated ([14]; 50 μg/mL, 72 h, SFM): 79.5%
Inhibition of migration with respect to untreated ([14]; 60 μg/mL, 24 h, 1% FBS): 50.1%
Inhibition of migration with respect to untreated ([14]; 60 μg/mL, 24 h, SFM): 82.0%
Inhibition of migration with respect to untreated ([14]; 60 μg/mL, 48 h, 1% FBS): 63.5%
Inhibition of migration with respect to untreated ([14]; 60 μg/mL, 48 h, SFM): 77.3%
Inhibition of migration with respect to untreated ([14]; 60 μg/mL, 72 h, SFM): 76.0%
Inhibition of migration with respect to untreated ([14]; 80 μg/mL, 24 h, 1% FBS): 65.6%
Inhibition of migration with respect to untreated ([14]; 80 μg/mL, 24 h, SFM): 80.5%
Inhibition of migration with respect to untreated ([14]; 80 μg/mL, 48 h, 1% FBS): 77.8%
Inhibition of migration with respect to untreated ([14]; 80 μg/mL, 48 h, SFM): 78.2%
Inhibition of migration with respect to untreated ([14]; 80 μg/mL, 72 h, SFM): 74.5%
Inhibition of migration with respect to untreated ([14]; 100 μg/mL, 24 h, 1% FBS): 73.8%
Inhibition of migration with respect to untreated ([14]; 100 μg/mL, 24 h, SFM): 55.7%
Inhibition of migration with respect to untreated ([14]; 100 μg/mL, 48 h, 1% FBS): 73.1%
Inhibition of migration with respect to untreated ([14]; 100 μg/mL, 48 h, SFM): 73.2%
Inhibition of migration with respect to untreated ([14]; 100 μg/mL, 72 h, SFM): 71.5%
IC50 Value (Meningioma (IOMM-Lee)): 18.37 µg/mL
